1 molecule from patent US20210198377A1 (XDCEXPLORER SHANGHAI, published 2021) can be followed below.

In experiment [1] the target is T1, human TPBG-hFc (human, UniProt Q13641 32-355).
T1 construct: also called immunogen A; hFc tagged TPBG protein; not shown: The human IgG Fc fragment of the pCpC vector (Invitrogen V044-50) and any linker to it
T1 sequence: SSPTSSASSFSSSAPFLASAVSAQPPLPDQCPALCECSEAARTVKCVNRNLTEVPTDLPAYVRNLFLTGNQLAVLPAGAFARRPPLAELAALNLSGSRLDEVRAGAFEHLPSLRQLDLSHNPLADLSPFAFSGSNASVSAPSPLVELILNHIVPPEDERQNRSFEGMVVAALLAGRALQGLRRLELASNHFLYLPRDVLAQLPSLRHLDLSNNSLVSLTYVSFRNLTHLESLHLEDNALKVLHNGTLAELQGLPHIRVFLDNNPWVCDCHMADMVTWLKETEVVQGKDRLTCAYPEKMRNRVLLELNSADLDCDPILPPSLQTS
Briefly: ELISA, coated human TPBG-hFc 1.0 ug/mL; antibody 20 nM. As for the experimental part: (§1) The purified immunogen A (as for its method of preparation please refer to step 1 in Example 1) diluting with PBS to a final concentration of 1.0 μg/mL was aliquoted into a 96-well ELISA plate at 100 μL per well, and sealed with a parafilm and incubated at 4° C. overnight. The plate was washed twice with plate washing buffer (PBS containing 0.01% (v/v) Tween 20), and blocked with blocking buffer (PBS containing 0.01% (v/v) Tween 20 and 1% (w/w) BSA) at room temperature for 2 h. The blocking buffer was discarded, and 100 μL per well of the purified antibody obtained from Embodiment 2 was added. After incubating at 37° C. for 2 h, the plate was washed for three times with plate washing buffer (PBS containing 0.01% (v/v) Tween 20). HRP (horseradish peroxidase)-labeled secondary antibody (purchased from Sigma) was added and incubated at 37° C. for 2 h, and the plate was washed for three times using plate washing buffer (PBS containing 0.01% (v/v) Tween 20). 100 μL of TMB substrate was aliquoted into each well, incubated at room temperature for 30 min, and 100 μL of stop buffer (1.0N HCl) per well was subsequently added. A₄₅₀ₙₘ values were read using the ELISA plate reader (SpectraMax 384plus purchased from Molecular Device), and the results were shown in FIG. 6 and table 6. […] In Table 6 the IgG control herein is a mice IgG control, the data in the Table are OD₄₅₀ₘₙ values, and Blank means the OD₄₅₀ₘₙ value when there is only PBS buffer in the plate.
For orientation: ELISA stands for enzyme-linked immunosorbent assay.

Experiment [2] has as its target T1, human TPBG-hFc. Briefly: ELISA, coated human TPBG-hFc 1.0 ug/mL; antibody 0.2 nM. Here is the method:
as §1

Experiment [3] addresses T2, biotinylated recombinant TPBG protein (Homo sapiens (Human), UniProt Q13641 32-355, Biotinylated; the number and positions of the biotin labels are not stated and the letters do not carry them.).
T2 sequence: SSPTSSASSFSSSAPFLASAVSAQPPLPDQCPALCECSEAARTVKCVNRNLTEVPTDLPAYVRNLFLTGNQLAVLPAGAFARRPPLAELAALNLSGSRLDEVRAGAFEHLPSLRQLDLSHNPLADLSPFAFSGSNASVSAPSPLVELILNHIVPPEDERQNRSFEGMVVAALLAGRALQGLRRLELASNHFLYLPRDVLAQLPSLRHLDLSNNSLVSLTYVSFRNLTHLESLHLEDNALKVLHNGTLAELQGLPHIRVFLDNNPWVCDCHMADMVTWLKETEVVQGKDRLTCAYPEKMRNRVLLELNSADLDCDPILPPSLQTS
Briefly: competitive ELISA; row antibody 5 ug/mL; competitor: coated 28D4E6A9. Here is the method:
(§2) The purified antibodies to be tested were diluted to 1 μg/mL using PBS, and coated with high-adsorption of 96-well microplates at […]. After overnight coating at 4[…], 250 μL of blocking buffer (PBS containing 0.01% (v/v) Tween20 and 1% (w/w) BSA) was added to block coating at room temperature for 1 h, and 0.05 μg/mL of biotinylated recombinant TPBG protein was added to each well. Meanwhile, 5 μg/mL final concentration of competitive antibodies, i.e. the purified antibodies obtained from Embodiment 2 with the clone number of 12B12C7C3, 5G4H10G5, 37H9C5G2, 39A11G5F2, 52C9E9F6, 28D4E6A9, 36A10D8B12, 99E12C7H1, 103E2E9C2 and 106D5G3D10 were added and incubated at 25-37° C. for 1-2 h. The plates were washed three times with plate-washing buffer (PBS containing 0.01% (v/v) Tween20) and HRP (horseradish peroxidase)-labeled streptavidin (purchased from Sigma) was added. After incubating at 37° C. for 0.5 h, the plates were washed three times with plate-washing buffer (PBS containing 0.01% (v/v) Tween20), and 100 μL of TMB substrate was added to each well and the plates were further incubated at room temperature for 30 min prior to adding 100 μL of stop buffer (1.0N HCl) to each well. A₄₅₀ₙₘ values were read using an ELISA microplate reader (SpectraMax 384plus purchased from Molecular Device) and results were shown in FIG. 6. The higher the values of the competition rate, the closer the antigen surface of the two antibodies are.

Experiment [4] deals with T2, biotinylated recombinant TPBG protein. In words: competitive ELISA; row antibody 5 ug/mL; competitor: coated 37H9C5G2. Here is the method:
as §2

The target is the same in experiment [5]. Briefly: competitive ELISA; row antibody 5 ug/mL; competitor: coated 52C9E9F6. Here is the method:
as §2

Experiment [6] shares this target. Briefly: competitive ELISA; row antibody 5 ug/mL; competitor: coated 5G4H10G5. Here is the method: as §2
Experiment [7] shares this target. In words: competitive ELISA; row antibody 5 ug/mL; competitor: coated 12B12C7C3. As for the experimental part: as §2

B1: 12B12C7C3 (antibody, V domains shown)
VH: DVQLVESGGGLVQPGGSRKLSCAASGFTFSNFGMHWVRQAPEKGLEWVAYISSGSTSFYYADTVKGRFTISRDNPKNTLFLQMTSLRSEDTAMYYCSRTNSLLRGFFDAWGAGTTVTVSS
VL: DIVLTQSPASLAVSLGQRATISCRASQSVSSSSYTYLHWYQQKPGQPPKLLIKSASNLESGVPARFSGTGSGTDFTLNIHPVEEEDTATYYCQHSWEIPLTFGAGTKLELK
notes: Mouse hybridoma antibody purified from culture supernatant; also called TPBG antibody; lead antibody
As to B1, the OD450nm is 2.83 OD450nm in experiment [1] and 1.67 OD450nm in experiment [2]. Moreover, the competition rate is 74% in experiment [3]; 1% in experiment [4]; 4% in experiment [5]; 47% in experiment [6]; 97% in experiment [7].
